{"source": "patent US20100291682", "about": "“SYSTEM FOR TRANSPOSING HYPERACTIVE RECOMBINANT DERIVATIVES OF MOS-1 TRANSPOSON” (published 2010)", "binders": {"B1": {"name": "ITR46 (dsDNA)", "DNA 1": "TCAGGTGTACAAGTATGAGATGTCGTTT", "DNA 2": "AAACGACATCTCATACTTGTACACCTGA"}, "B2": {"name": "ITR40 (dsDNA)", "DNA 1": "TCAGGTGTACAAGTATGTAATGTCGTTA", "DNA 2": "TAACGACATTACATACTTGTACACCTGA"}}, "key": {"[1]": {"biological_target": "T1, MBP-Mos-1 transposase (MBP-Tnp) (Drosophila mauritiana, UniProt Q7JQ07 SEQ:1-345)", "T1 sequence": "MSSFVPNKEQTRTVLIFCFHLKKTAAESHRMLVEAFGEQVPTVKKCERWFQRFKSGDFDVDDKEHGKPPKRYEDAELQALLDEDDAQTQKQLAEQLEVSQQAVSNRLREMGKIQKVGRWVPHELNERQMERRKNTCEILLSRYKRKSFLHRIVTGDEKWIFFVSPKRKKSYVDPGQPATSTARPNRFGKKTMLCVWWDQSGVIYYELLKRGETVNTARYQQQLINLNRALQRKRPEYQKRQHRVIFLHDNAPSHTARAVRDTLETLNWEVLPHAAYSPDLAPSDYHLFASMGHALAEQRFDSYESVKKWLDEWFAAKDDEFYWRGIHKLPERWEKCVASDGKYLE", "assay": "EMSA; 5 mM MgCl2, 4 C", "settings": "tags: N-terminal MBP (pMalC2x); chain copies: 2", "method": "The sequences inducing a delay in migration after incubation with Tnp (positive ITRs) were subjected to a further gel retardation with a purified DNA fragment. The ITR/protein complexes were formed in a final volume of 20 μl containing: 40 μg of MBP-Tnp protein, 1 nM of ITR probe, 1 μg of salmon sperm DNA, 2 μl of 50% glycerol, 5 mM of MgCl₂ and 0.5 μM of pRev. The ITRs only were used at a final concentration of 1 nM in a mixture containing 2 μl of 50% glycerol and 17 μl of buffer. The interaction reactions were maintained for 15 minutes at 4° C. before being analysed on polyacrylamide gel."}, "Mos-1 transposase FQET": {"biological_target": "T2, Mos-1 transposase FQET (Drosophila mauritiana, UniProt Q7JQ07 SEQ:1-345, F53Y,Q91R,E137K,T216A)", "T2 sequence": "T1 sequence with F53Y, Q91R, E137K, T216A", "assay": "cell_activity; 3T40 transposition in E. coli T5 vs 3T3/WT", "settings": "chain copies: 2", "method": "(§1) Escherichia coli JM109 bacteria were co-transformed with the pBC 3T3 plasmid (comprising a transposition reporter 2 ITR 3′ mariner-like element and the chloramphenicol resistance gene) and with the inducible vector encoding for the transposase (pKK-Tnp or pMal-Tnp) comprising the ampicillin resistance gene. The bacteria selection was performed on ampicillin (100 μg/ml) and chloramphenicol in order to verify the presence of the two plasmids.\n(§2) The JM109 bacteria containing both the pBC 3T3 plasmid and the pKK-Tnp (or pMalC2X-Tnp) plasmid were placed in culture for 1 hr at 37° C. in 250 μl of LB. This inoculum was then poured into 5 ml of LB supplemented with 1 mM IPTG. The culture was titrated on LB plates (100 μl of a 1/1000 dilution) and on LB-Tet plates (12.5 μg/ml) (250 μl of the non-diluted culture). The culture induced by IPTG was then cultured for 5 hours at 32° C. (optimal temperature of transposase) under stirring (250 rpm). The bacterial suspension was then titrated on LB plates (100 μl of a 1/250,000 dilution) and on LB-tet plates (100 μl of the undiluted bacterial suspension). The plates were placed at 37° C. overnight. The following day, the colonies were counted on LB and LB-Tet plates, and the transposition frequency (equal to the number of tetracycline bacteria over the number of bacterial per 1 ml of undiluted bacterial suspension) was calculated.\n(§3) In order to evaluate the transposition efficiency of systems associating a hyperactive transposase and a pseudo-transposon that is also hyperactive, various combinations were tested in the transposition test in bacteria described in part I, paragraph I-B above."}, "Mos-1 transposase FTY": {"biological_target": "T3, Mos-1 transposase FTY (Drosophila mauritiana, UniProt Q7JQ07 SEQ:1-345, F53Y,T216A,Y237C)", "T3 sequence": "T1 sequence with F53Y, T216A, Y237C", "assay": "cell_activity; 3T40 transposition in E. coli T5 vs 3T3/WT", "settings": "chain copies: 2", "method": "as §1, §2, §3"}, "Mos-1 transposase FQ": {"biological_target": "T4, Mos-1 transposase FQ (Drosophila mauritiana, UniProt Q7JQ07 SEQ:1-345, F53Y,Q91R)", "T4 sequence": "T1 sequence with F53Y, Q91R", "assay": "cell_activity; 3T40 transposition in E. coli T5 vs 3T3/WT", "settings": "chain copies: 2", "method": "as §1, §2, §3"}, "[2]": {"biological_target": "T1, MBP-Mos-1 transposase (MBP-Tnp)", "assay": "competition; competes with labelled ITR3'", "settings": "tags: N-terminal MBP (pMalC2x); chain copies: 2", "method": "The principle of these tests is illustrated in FIG. 9. […] The greater the shift, the greater the “improvement” of the ITRSelex sequence with respect to ITR3′. In practice, the transposase fixing reaction is carried out in 20 μl containing 10 mM of Tris pH9 buffer, 0.5 mM of DDT, 5 mM MgCl₂, 5% (vol/vol) of glycerol, 1 μg of herring sperm DNA and 100 ng of BSA, in the presence of 15 nM of radiolabelled ITR3′ and non-radiolabelled ITRSelex. The non-radiolabelled ITRSelex concentrations tested were 0 nM, 15 nM, 75 nM, 150 nM, 300 nM, 750 nM, 1500 nM."}}, "note": "Residue numbers refer to the chain shown, from its start."}
{"binder": "B1", "values": [{"measurement": "binding result", "setting": "[1]", "result": "binds"}]}
{"binder": "B2", "values": [{"measurement": "activity", "setting": "Mos-1 transposase FQET", "result": 3.7, "unit": "fold"}, {"measurement": "activity", "setting": "Mos-1 transposase FTY", "result": 2.4, "unit": "fold"}, {"measurement": "activity", "setting": "Mos-1 transposase FQ", "result": 2.5, "unit": "fold"}, {"measurement": "binding result", "setting": "[2]", "result": "binds"}]}
